Measured values: US20190324031A1 (MARS, published 2019)
Numbered stars: 1 amine (or outer) side, 2 acyl side, 3 side chain; on linkers, the order of the positions; unused ones are H or OH. Square brackets hold non-standard residues; d marks the D form. Ends that are not written are not given here. γGlu = O=C(O)[C@H](CCC(=O)[*:2])N[*:1]

Target: T1, feline calcium-sensing receptor (fCaSR) from Felis catus, full length, expressed in HEK T-Rex/natClytin cells … (Felis catus)
T1 chain: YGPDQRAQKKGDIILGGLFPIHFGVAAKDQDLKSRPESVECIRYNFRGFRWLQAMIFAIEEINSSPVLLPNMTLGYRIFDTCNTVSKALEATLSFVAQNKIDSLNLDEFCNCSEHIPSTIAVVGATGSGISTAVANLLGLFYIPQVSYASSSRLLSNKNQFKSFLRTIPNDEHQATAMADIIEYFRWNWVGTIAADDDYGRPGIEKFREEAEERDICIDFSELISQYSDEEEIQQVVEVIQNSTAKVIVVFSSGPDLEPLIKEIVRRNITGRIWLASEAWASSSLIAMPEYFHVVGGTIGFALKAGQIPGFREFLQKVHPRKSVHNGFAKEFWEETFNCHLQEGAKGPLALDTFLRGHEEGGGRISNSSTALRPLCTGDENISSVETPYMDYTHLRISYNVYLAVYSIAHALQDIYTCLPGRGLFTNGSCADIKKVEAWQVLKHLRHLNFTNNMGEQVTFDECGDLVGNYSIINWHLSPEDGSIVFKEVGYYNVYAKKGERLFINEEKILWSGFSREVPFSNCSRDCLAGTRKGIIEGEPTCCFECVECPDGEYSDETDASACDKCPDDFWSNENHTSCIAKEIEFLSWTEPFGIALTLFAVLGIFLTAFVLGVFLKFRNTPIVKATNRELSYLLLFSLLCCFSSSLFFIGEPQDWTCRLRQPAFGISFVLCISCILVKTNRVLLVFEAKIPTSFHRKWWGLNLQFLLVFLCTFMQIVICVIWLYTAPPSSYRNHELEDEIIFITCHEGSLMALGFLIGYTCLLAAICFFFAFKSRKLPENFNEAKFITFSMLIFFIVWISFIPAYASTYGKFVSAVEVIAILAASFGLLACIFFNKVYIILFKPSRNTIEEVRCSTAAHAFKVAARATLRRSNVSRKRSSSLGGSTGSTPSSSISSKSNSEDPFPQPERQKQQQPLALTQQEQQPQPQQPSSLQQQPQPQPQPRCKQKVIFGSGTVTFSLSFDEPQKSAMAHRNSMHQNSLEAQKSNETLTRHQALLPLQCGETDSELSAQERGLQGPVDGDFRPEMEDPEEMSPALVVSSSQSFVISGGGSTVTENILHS
Assay: cell-based or functional assay

Agonist EC50: 8.2 mM
B1: L-Glutathione (γ-Glu-Cys-Gly) (peptide)
peptide: [γGlu]-Cys-Gly
modifications: also: γ-glutamyl peptide bond between Glu side chain and Cys
